Laboratory results reported in US20060218667A1.

Molecular target: porcine trypsin (porcine) (UniProt P00761)
Experiment: cell-based or functional assay

UniProt P00761, sequence (P00761 9-231 limits assumed): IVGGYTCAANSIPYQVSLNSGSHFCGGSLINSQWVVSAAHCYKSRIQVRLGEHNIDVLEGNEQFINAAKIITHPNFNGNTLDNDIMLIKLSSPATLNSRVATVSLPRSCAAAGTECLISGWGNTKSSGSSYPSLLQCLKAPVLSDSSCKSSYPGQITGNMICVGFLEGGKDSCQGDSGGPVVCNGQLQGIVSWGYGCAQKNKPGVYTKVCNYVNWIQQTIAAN

Substance: r-Aprotinin-L (aprotinin variant with Met 52 replaced by leucine)
- KIU/mg Protein (specific activity) (KIU/mg protein): 7150

Substance: r-Aprotinin-Q (aprotinin variant with Met 52 replaced by glutamine)
- KIU/mg Protein (specific activity) (KIU/mg protein): 7220

Substance: r-Aprotinin-V (aprotinin variant with Met 52 replaced by valine)
- KIU/mg Protein (specific activity) (KIU/mg protein): 7160
